What was measured:
Type in all cases: biochemical, Quillaja saponaria
[1] = Experiment 4-1: screening of glucosidases for deglycosylation with purified QS-18 (0.04 mg/ml) at pH 7.5 and room temperature; conditions: pH 7.5, room temperature, 20 h, clarified E. coli lysate, QS-18 2150 to QS-21 1988 by LCMS/MS
Summary of the method: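 Deglycosylation measured by LC-MS/MS as % conversion after 20 h room-temperature incubation of QS-18 phenyl fraction (0.04 mg/ml final) with polymyxin B/lysozyme lysates, pH 7.5 phosphate, of E. coli BL21(DE3) expressing each enzyme; MeCN quench. Positives exceeded negative control by >3 S.D.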

[2] = Experiment 4-2: screening of glucosidases for deglycosylation with purified QS-18 (1 mg/ml) at pH 6 and 30 deg C; conditions: pH 6, 30 degC, 18 hrs, clarified lysate, LCMS/MS
Summary of the method: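 Enzyme activity derived from LC-MS/MS analysis after MeCN quench. Substrate QS-18 (1 mg/ml final) was exposed overnight (18 h, 30 °C, pH 6 phosphate buffer) to clarified lysates containing candidate glucosidases.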

[3] = Experiment 4-4: screening of glucosidases for deglycosylation of QS-18 in crude bark extract (1 in 20 dilution) to QS-21; conditions: CBE 1 in 20 dilution, pH 6, 25 degC, 18 hours; % conversion of Middle Peak by UV HPLC
Procedure: Lysates were prepared as in Experiment 4-2.
Crude bark extract (CBE) was adjusted to pH 6 by dropwise addition of 2M NaOH with stirring. 25 uL of clarified lysate was transferred to a reaction plate, 22.5 ul of 100 mM potassium phosphate buffer pH 6 was added, 2.5 ul CBE at pH 6 was added. Reaction plates were sealed, incubated at 25 degC with shaking for 18 hours, then quenched by addition of 50 uL acetonitrile (MeCN). Quenched reaction plates were re-sealed and incubated at 20 degC with shaking for 10 min. The reaction plates were centrifuged (10 min, 4 degC) and analysed by UV HPLC with the method below:
Three key peaks of interest are apparent using this chromatography: Left Peak (retention time approximately 2.30-2.35 min) comprising mainly QS-17 family components; Middle Peak (retention time approximately 2.37-2.42 min) comprising mainly QS-18 family components and desglucosyl-QS-17 family components; and Right Peak (retention time approximately 2.44-2.50 min) comprising mainly QS-21 family components. Peak identity was supported by MS/MS.
Enzyme activity is calculated as the % conversion of the Middle Peak present in the crude bark extract: […]

B1: 234 (protein, listed as Sphingobium chlorophenolicum)
chain: MTFPRSLFLASTILAFHCNPSFARNESPAKAIERADKTLKAMTPEEKTILTHGIMPLKILPNSPEPPAEAIPGAGYIKGIPRLGVPALYETDASLGVSYVFGLRKDGATALPSGLAQASTWNPALIEKAGRMIGAETRAKGFNVLLAGGVNLMRDPRNGRNFEYLGEDPLLAGTLVGHAIRGIQSNHIISTIKHFAFNGQETARKLVDSKISAANAHESDLLAFKIGIEIGDPGSVMCAYNKVNGHSACDNNWLLNTVLKHDWGYKGFVMSDWGAVPSLGAALNGLDQQSGEQLDTAVFFGDTLAAAAKSNPVYAKRLDDMNRRILWAIYNNGLDANPAKPGGVIDFKAHGDIAEQVARQGIVLLRNERGVLPLAASTKRIAVIGGYANSGVLSGAGSSQVQAEGGPAVYIPAGNGDENSSFIAESYHNSVPLKALRAAAPNAEITYRNGRYIAEAVAQAKKSDVAIVFATQWTSEGFDVPDMSLPNGQDALLAAVAAANPNTVVVLETGGPVMMPWLDSTAAVIEAWYPGARGAEAIAAVLTGKVNPSGKLPVTFPAHKDQLPRAEVDGMDSTEPSFLGMPDLKGQALVADYDIEGSNIGYRWNALKGNKALFPFGHGLSYTSFAASGLKTDGARASARITNTGKADGATIAQLYLVSRTGKPARRLVSFQRVELVAGQSKPLAMTIDPRLLGDWRDGNWTIVAGDYGFALGEDAEHLGPVTTVRLKGRTWRD
**Q.** Which results are given for B1?
**A.** Expt 4-1 % conv [1]: 2.5%; Expt 4-2 % conv [2]: 0.7%; Expt 4-4 % conv [3]: <3%

B2: 350 (protein)
chain: MIDDILDKMTLEEQVSLLSGADFWTTVAIERLGVPKIKVTDGPNGARGGGSLVGGVKSACFPVAIALGATWDPELIERAGVALGGQAKSKGASVLLAPTVNIHRSGLNGRNFECYSEDPALTAACAVAYINGVQSQGVAATIKHFVANESEIERQTMSSDVDERTLREIYLPPFEEAVKKAGVKAVMSSYNKLNGTYTSENPWLLTKVLREEWGFDGVVMSDWFGSHSTAETINAGLDLEMPGPWRDRGEKLVAAVREGKVKAETVRASARRILLLLERVGAFEKAPDLAEHALDLPEDRALIRQLGAEGAVLLKNDGVLPLAKSSFDQIAVIGPNAASARVMGGGSARIAAHYTVSPLEGIRAALSNANSLRHAVGCNNNRLIDVFSGEMTVEYFKGRGFESRPVHVETVEKGEFFWFDLPSGDLDLADFSARMTATFVPQETGEHIFGMTNAGLARLFVDGELVVDGYDGWTKGENFFGTANSEQRRAVTLGAARRYRVVVEYEAPKASLDGINICALRFGVEKPLGDAGIAEAVETARKSDIVLLLVGREGEWDTEGLDLPDMRLPGRQEELIEAVAETNPNVVVVLQTGGPIEMPWLGKVRAVLQMWYPGQELGNALADVLFGDVEPAGRLPQTFPKALTDNSAITDDPSIYPGQDGHVRYAEGIFVGYRHHDTREIEPLFPFGFGLGYTRFTWGAPQLSGTEMGADGLTVTVDVTNIGDRAGSDVVQLYVHSPNARVERPFKELRAFAKLKLAPGATGTAVLKIAPRDLAYFDVEAGRFRADAGKYELIVAASAIDIRASVSIHLPVDHVMEP
modifications: Rhizobium radiobacter
**Q.** Which results are given for B2?
**A.** Expt 4-1 % conv [1]: 2.6%; Expt 4-2 % conv [2]: 0.7%; Expt 4-4 % conv [3]: <3%

B3: 354 (protein, listed as Chthonomonas calidirosea)
chain: MGKTKRSLKVNRRDFFTLGAATLLAAISLPDGDLLAFAQKEREKDLVYGIRRERFEWAQKKAAALVAQMTREEKISQVGNNVPAIPRLGLPAYNYYSGEALHGLVRGGPVTSFPLPLALANTWNPELQYQVYTAVSDEARAYHNRDGVGLAYYSPQTINTAKDPRWGRIEETLGEDPHLMSLMAVQAVRGMQGDDPNYLKTVACAKHYIANETDNDRTAVSETVDPRSFWEYYVRPFYACVVDGKVFSVMGAYNAVNGIPCCADKNLLTGILRERWGFQGYVTSDCDAIYNIYDPHHYATSLAEACAMGIKAGCDLDCGDTYPRHLGEAFEQHLLEEADLDKAVTRLLTARFLFGDLDPEPRCPYNKIPFSVVDSPKHRALALEAARQSIVLLKNDGILPLDKTALKSVAVIGPTAAIAHLGGYSGAPFLRVSPLSGIAQALGIGIHFDEVYAYQAVRLEGGPQLESSVEQGGTDIGFIKNGSWVEFPATDFAGKNEIEVRVASDTQGGTIEIHLDRLNGPLLCTLQVPHTGGWQNWISLKAPINGVIGKHKLFFLFKGGDGYLLNVAWYRLNPPSPPETHNPNGIALTYQQGCTITGARNDTMFQKAVEAARQADVAIVVAGVNQEVDAEGHDRDDIRLTGAQHELIQAVYQANPKTILVLSTNAPVAVTWEQENLPAIVAAIFAGQAQGTAIADVLFGNYNPSGKLATTWYKSVEDLPDFHDFDITKRTYMYFEGEPLYPFGYGLSYTTFQIGNIQVSHPRLTSGGSITVSVDVTNIGKRAGTEVVQLYVRPPKSPVKRPNKQLVDFKRVELRPGETKRVELSLPYESPALWYWDVAQSKFVLQPGTVTLMVGNSSAHIAHTTTIELV
**Q.** With B3 as the molecule, how does the “Expt 4-1 % conv” value [1] read?
**A.** 1.6%

**Q.** And the “Expt 4-2 % conv” value [2]?
**A.** 0.5%

**Q.** And the “Expt 4-4 % conv” value [3]?
**A.** <3%

B4: 380 (protein, listed as Ogataea parapolymorpha)
chain: MSTFDVDDILSQLHVKEKVQLLSLKDFWHTANIDRLNIPSVRLSDGPNGVRGTKFFRSVPSACFSSGTALAATFNMPLLEQLGKLMAEEARHKGAHVILGPTCNIARGPLGGRGFESFSEDPYLSGIAAAAIIKGIESQGIGATLKHFVCNDLEDERNSIDVILSDRALREIYLLPFQIAIKEANPKCVMSSYNKVMGEHVSQSKKLLTDILRKEWGWDGLTMSDWFGVYSIKSSLDAGLDLECPGYPLMRKHDALIHAISSREINMDVIDIRVRNILKLVQHALKSSIPQNAPEDSENNTPETSALLRKAASEAIVLLKNESSILPLKPSDEIAVIGPNARIPRMYGGGSASVNCYYGISVYDGISNKIGSQPPYSMGCDIARNMFDLGKLASYKGEPGVRIKVYKEAPGTPDRSLIEEFRYDSLQLLLFDYNHEKLDSSLFYFDIEGEFTSDKDMSYDIHLSCLGTALLYINGELFIDDKTNQKMGFAAIGASSLGDTKTIHMKKDERIEFKIEFGSAPTFTLETLDLVASNGGGSLTVAIGEKITDQNRINDAVELAKTADKVILCVGTSSDWESEGFDRPHMDLPKSQGILIEEILKVNKNIILVNLSGTPVTLPWIDEIPAVVHGWFNGMESGNAMADVLYGDVNASGKLSLSWPKRCEDNPSFLNFKSDKGKVVYGEDVFVGYRYYEKVCREPLFAFGYGLSYTAFNFDGLDVKVAADNLVCTLNIKNIGKLRGAEVVQLYVIPPLTTTTVSRPLKEFKGCQKVFLEPGQKITTTISVPIKYACSYFDVERQKWSIESGEYGVFIGNSSDAMDALIGKFVIQKPLLWSGL
**Q.** For B4, which “Expt 4-1 % conv” value [1] is on record?
**A.** 2.4%

**Q.** What about the “Expt 4-2 % conv” value [2] of the same molecule?
**A.** 0.5%

**Q.** What about the “Expt 4-4 % conv” value [3] of the same molecule?
**A.** <3%

B5: 339 (protein, listed as Koribacter versatilis)
chain: MKISRVFLATTLALSMFGSAQRPDPRAELMKKPWMDKNKSADERAELVLKEMTVDEKINLIHGQGMEEMAEFGIPMPNKALGNGGAGFVLGVERLGIPLIQMSDAAYGVRSSAKNGRYSTALPSNLGSAASWDPQAACEYGALIGRELRAQGYNMTLGGGVNITREPRNGRTFEYMGEDPILAGTLVGNRIKCEQAQHVIGDTKHYAVNDQESGRTEVDVVISKRAMRETDLLAFEIGIEIGQPGAVMCSYNLVNGTYACQNKYLLTDVLKKDWNFKGFVVSDWGATHSTIESSAAGLDNEQPFGIFYSDKFKAGLDSGKIPMSELDDHVRRILRTEFASGIVDNPVVKAVVDVEAGLETARKIEEGSIVLLKNGNNILPLDKDSIKSVAIIGEKADFGMISGGGSAQVDPPGPSHEWQAHVWFPTSPLKAVQAKLPNAKVDWRSGSDKSKAAALAKQSDIAIVFVHQWISEGMDLPDLTLPFGQDELIERVAAANPRTIVVLESGTAVTMPWLDKVSGVVEAWYGGSKGADAVANILFGDVNPSGKLPMTFPRSVEDVPHPKLAVPPPNPNPMETYMHPELAKATVTATYDEGVKVGYKWYDAEKKPVLFPFGFGLSYTTYQYSGLKVSSGKTTTVSFTVKNTGKRGGDEIAQVYASLPAEAQEPPKRLVGFTKVHLNAGESKEVSVTVPAKYLSVFDEASNGWKLVPGSYSFMVGGSSQDLPQKQSATF
**Q.** Which “Expt 4-1 % conv” value [1] does the source give for B5 here?
**A.** 1.4%

**Q.** And the “Expt 4-2 % conv” value [2]?
**A.** 0.5%

**Q.** And the “Expt 4-4 % conv” value [3]?
**A.** <3%

B6: 222 (protein, listed as Marinomonas posidonica)
chain: MTPKDILNALTVEEKARLCTGKDFWHLHGIERLELPSIMVTDGPHGLRKQSGEGDHVGLNASVKATCFPTASGLASSWNPALIEKMGVALGKECRAENVSVLLGPGINIKRNPLGGRNFEYFSEDPLIAGDMSTAWIKGVQSQDVGTSLKHYAVNNHEHCRMTVDAVVDQRTLREIYLPAFEKAIKQSQPWTVMCAYNKINGTYAAEHQQLLDDILVKEWGFEGIVVTDWGANNDRVEGIKHGQHLEMPSSGELNTQKILDAIDSGRLSIAALDKSVLRVLELIVKSQAALNNAPVNVDLERHHTLASKVAEESCVLLKNDQLLPAQKDQNVLVIGALANNTRYQGAGSSKINPFKLEQPLAQIEAVFGTNNVRYSQGYQLNDESDQTMIEDAVAQAEQADVIFLFAGLTPKYESEGFDRQHLNLPQVQLDLIDALGDQLGKTAVILQNGAPVTLPFVDKVPAILEAYLGGQAGASAIAKILAGDVNPSGKLAETFPLSLDDVPSQPYFPGTTKQTQYREAIWVGYRYFAHTAQPVLFPFGHGLTYSEFSFSELRIMDDKLDLKAVSFDEQTRIRLQVTVTNTGDRAGAEVVQCYLGQNKPSQPRPAKELRAYQKVFLEAGQSKCVELELNYRDFAFWCEADSQWRVESDDYHIQIGASVEDIRLTTLITLKTDTPLAPQNATLSAYFTPADRQFNDQSFSALLGKPIPDATPITPYTLNSTLGDIAQTEQGKPLFNAMLSVFSKMMEGDTNDSAAEADKLMAEAMVSDMPLRNLPVFNSQSYSEEALLALLADLNS
**Q.** For B6, which “Expt 4-1 % conv” value [1] is on record?
**A.** 1.6%

**Q.** What about the “Expt 4-2 % conv” value [2] of the same molecule?
**A.** 0.4%

**Q.** And the “Expt 4-4 % conv” value [3]?
**A.** <3%
